Reference: patent US11976099B2, “Compositions and methods for treatment of bone associated diseases” (THE NATIONAL INSTITUTE FOR BIOTECHNOLOGY IN THE NEGEV LTD., priority 2016, dated 2024)

B1: M-CSFM: 158 amino acid M-CSF with cysteine at position 31 replaced by serine (SEQ ID NO: 2) (protein)
chain: EEVSEYCSHMIGSGHLQSLQRLIDSQMETSSQITFEFVDQEQLKDPVCYLKKAFLLVQDIMEDTMRFRDNTPNAIAIVQLQELSLRLKSCFTKDYEEHDKACVRTFYETPLQLLEKVKNVFNETKNLLDKDWNIFSKNCNNSFAECSSQGHERQSEGS
B2: M-CSFC31S,M27R: M-CSF double mutant containing both C31S and M27R; monomeric, monospecific c-FMS antagonist (protein)
chain: EEVSEYCSHMIGSGHLQSLQRLIDSQRETSSQITFEFVDQEQLKDPVCYLKKAFLLVQDIMEDTMRFRDNTPNAIAIVQLQELSLRLKSCFTKDYEEHDKACVRTFYETPLQLLEKVKNVFNETKNLLDKDWNIFSKNCNNSFAECSSQGHERQSEGS
B3: M-CSFWT: wild-type human M-CSF, disulfide-bond-linked homodimer which binds and activates c-FMS (protein)
chain: EEVSEYCSHMIGSGHLQSLQRLIDSQMETSCQITFEFVDQEQLKDPVCYLKKAFLLVQDIMEDTMRFRDNTPNAIAIVQLQELSLRLKSCFTKDYEEHDKACVRTFYETPLQLLEKVKNVFNETKNLLDKDWNIFSKNCNNSFAECSSQGHERQSEGS

test: Dynamic light scattering (DLS); format: physicochemical; conditions: 0.5 mg/ml; angle of 90°
Description: Dynamic light scattering (DLS)—The hydrodynamic radii of M-CSFWT, M-CSFC31S and M-CSFC31S,M27R were determined using DLS. The proteins, in a concentration of 0.5 mg/ml, were filtered to remove aggregates and contaminants. Light scattering was measured at an angle of 90° three times, in two different experiments, resulting in a total of six measurements. […] An analysis of the solution was conducted to verify that the most abundant specie was in the size range of 1-10 nm. The peak for this specie was compared for the three different proteins, and the hydrodynamic radius of each was determined as the maximum of the peak.
Next, the size of the M-CSF variants was evaluated in solution. M-CSFWT, M-CSFC31S and M-CSFC31S,M27R at concentrations of 0.5 mg/ml were subjected to dynamic light scattering (DLS) analysis at an angle of 90°. The peaks for the most abundant species in each sample were compared (FIG. 16B), and an estimated hydrodynamic radius was calculated from each peak. […] To confirm that the oligomeric state of M-CSFC31S,M27R is not concentration dependent, all M-CSF variants were subjected to SAXS measurements at concentrations of 3, 5 and 7 mg/ml. Of note is that the Rg values remained within a similar range for M-CSFWT and M-CSFC31S. There was a slight increase in the Rg value of M-CSFC31S,M27R at higher concentrations, presumably due to an increase in interparticle interactions. […] To illustrate the oligomeric states of these three proteins in solution, low-resolution structures were reconstructed from the SAXS data. Ab initio models were reconstructed from SAXS data using the computer program GASBOR and were averaged by the computer program DAMAVER. The crystal structure of the M-CSF dimer and the structure of the monomer were aligned with the obtained SAXS models (yellow, M-CSFWT; green, M-CSFC31S; cyan, M-CSFC31S,M27R) using PyMOL (http://www.pymol.org).

Which hydrodynamic radius does the source give for B1 here?
The hydrodynamic radius was 3.56±0.24 nm.

Which hydrodynamic radius does the source give for B2 here?
Its hydrodynamic radius is 2.94±0.10 nm.

For B3, which hydrodynamic radius is on record?
Its hydrodynamic radius is 3.73±0.19 nm.
